In patent US20210403579A1 (DELINIA, published 2021):
Changes are numbered by the printed parent chain.

T1: Human ST2 (human, UniProt Q01638 19-328, limits assumed)
T1 construct: also called human ST2 protein; Interleukin 1 receptor-like 1
T1 sequence (looked up): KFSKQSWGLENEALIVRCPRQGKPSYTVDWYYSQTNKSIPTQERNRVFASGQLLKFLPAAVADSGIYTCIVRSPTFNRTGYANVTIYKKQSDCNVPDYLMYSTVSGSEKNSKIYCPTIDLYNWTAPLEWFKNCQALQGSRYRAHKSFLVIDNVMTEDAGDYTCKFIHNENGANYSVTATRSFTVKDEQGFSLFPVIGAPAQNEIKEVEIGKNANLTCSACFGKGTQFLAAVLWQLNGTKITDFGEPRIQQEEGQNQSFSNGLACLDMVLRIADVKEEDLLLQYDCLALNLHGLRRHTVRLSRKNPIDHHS

B1: Human ST2 IgG1 Antibody 1 (antibody, V domains shown)
VH: QVQLVQSGAEVKKPGSSVKVSCKASGGTFSSYAISWVRQAPGQGLEWMGGIIPIFGTANYAQKFQGRVTITADESTSTAYMELSSLRSEDTAVYYCAKSILGGRIFGGYFDLWGRGTLVTVSS
VL: DIVMTQSPLSLPVTPGEPASISCRSSQSLLHSNGYNYLDWYLQKPGQSPQLLIYAASSLQSGVPDRFSGSGSGTDFTLKISRVEAEDVGVYYCMQALQTPPTFGQGTKVEIKR
notes: IgG1; also called ST2 Antibody 1
B2: Human ST2 IgG1 Antibody 2 (antibody, V domains shown)
VH: QVQLVQSGAEVKKPGSSVKVSCKASGYTFSDYYVHWVRQAPGQGLEWMGGIIPIVGTANYAQKFQGRVTITADESTSTAYMELSSLRSEDTAVYYCARAGGGDYKSYYFDYWGRGTLVTVSS
VL: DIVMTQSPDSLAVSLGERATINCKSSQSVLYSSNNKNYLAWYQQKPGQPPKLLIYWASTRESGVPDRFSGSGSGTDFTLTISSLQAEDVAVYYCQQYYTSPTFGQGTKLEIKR
notes: IgG1; also called ST2 Antibody 2
B3: Human ST2 IgG1 Antibody 3 (antibody, V domains shown)
VH: QVQLVQSGAEVKKPGSSVKVSCKASGGTFSSYAFSWVRQAPGQGLEWMGGIIPIFGTPNYAQKFQGRVTITADESTSTAYMELSSLRSEDTAVYYCARVRAKRPNWYFDLWGRGTLVTVSS
VL: not shown
notes: IgG1; also called ST2 Antibody 3
B4: Human ST2 IgG1 Antibody 4 (antibody, V domains shown)
VH: QVQLVQSGAEVKKPGSSVKVSCKASGGTFSTFGVSWVRQAPGQGLEWMGRIIPILATTNYAQKFQGRVTITADESTSTAYMELSSLRSEDTAVYYCASGDYYDSSGYYGYFQHWGQGTLVTVSS
VL: EIVMTQSPATLSVSPGERATLSCRASQSVSSSYLAWYQQKPGQAPRLLIYGASTRATGIPARFSGSGSGTEFTLTISSLQSEDFAVYYCQQSYSIPFTFGQGTKLEIKR
notes: IgG1; also called ST2 Antibody 4
B5: Human ST2 IgG1 Antibody 5 (antibody, V domains shown)
VH: EVQLLESGGGLVQPGGSLRLSCAASGFTFSSYWMSWVRQAPGKGLEWVSSISSDTTYKYYADSVKGRFTISRDNSKNTLYLQMNSLRAEDTAVYYCAREVDTAMKNWGQGTLVTVSS
VL: DIQMTQSPSSLSASVGDRVTITCRASQGIGNDLAWYQQKPGKAPKLLIYAASSLQSGVPSRFSGSGSGTDFTLTISSLQPEDFATYYCQQSYSTPYTFGQGTKVEIKR
notes: IgG1; also called ST2 Antibody 5
B6: Human ST2 IgG1 Antibody 6 (antibody, V domains shown)
VH: EVQLLESGGGLVKPGGSLRLSCAASGFTFSSYWMSWVRQAPGKGLEWVSAIGGSGAGTYYADSVKGRFTISLDDSKNTLYLQMNSLKTEDTAVYYCARLSTVTRGFDYWGQGTLVTVSS
VL: B5 VL with G28S, G30S, D32W, A50S, S56N, Y96P
notes: IgG1; also called ST2 Antibody 6
B7: Human ST2 IgG1 Antibody 7 (antibody, V domains shown)
VH: QVQLVQSGAEVKKPGASVKVSCKASGYTFTDSYIHWVRQAPGQGLEWMGWMNPNSGNTGYAQKFQGRVTMTRDTSTSTVYMELSSLRSEDTAVYYCARGVFDYGDYGYYYHYMDVWGKGTTVTVSS
VL: DIVMTQSPLSLPVTPGEPASISCRSSQSLLHSNGYNYLDWYLQKPGQSPQLLIYGASTLQPGVPDRFSGSGSGTDFTLKISRVEAEDVGVYYCMQGTQWPTFGQGTKLEIKR
notes: IgG1; also called ST2 Antibody 7
B8: Human ST2 IgG1 Antibody 8 (antibody, V domains shown)
VH: QVQLVQSGAEVKKPGASVKVSCKASGGTFSSYAISWVRQAPGQGLEWMGWISPDNGNTNYAQKLQGRVTMTRDTSTSTVYMELSSLRSEDTAVYYCARLAYDTGYYYYYYMDVWGKGTTVTVSS
VL: B1 VL with S58T, A96G, L97T, Q98H, T99W, P101L
notes: IgG1; also called ST2 Antibody 8
B9: Human ST2 IgG1 Antibody 9 (antibody, V domains shown)
VH: EVQLLESGGGLVQPGGSLRLSCAASGFAFSSHWMHWVRQAPGKGLEWVATISSGSHSIHYADSVKGRFTISRDNSKNTLYLQMNSLRAEDTAVYYCAREAGTSYYYYGMDVWGKGTTVTVSS
VL: B5 VL with R24Q, G28D, G30R, D32Y, A34N, A50K, Q55E, Y96P, Q100G
notes: IgG1; also called ST2 Antibody 9
B10: Human ST2 IgG1 Antibody 10 (antibody, V domains shown)
VH: QVQLVQSGAEVKKPGSSVKVSCKASGGTFGYYAISWVRQAPGQGLEWMGGIIPMVGTGQYAQEFQGRVTITADESTSTAYMELSSLRSEDTAVYYCAGVEVGATRGYFQHWGQGTLVTVSS
VL: B1 VL with S58T, A96G, L97T, Q98H, T99W, P101T, K108R, V109L
notes: IgG1; also called ST2 Antibody 10
B11: Human ST2 IgG1 Antibody 11 (antibody, V domains shown)
VH: QVQLVQSGAEVKKPGASVKVSCKASGGTFSSYAISWVRQAPGQGLEWMGWINPNSGGTNYAQKFQGRVTMTRDTSTSTVYMELSSLRSEDTAVYYCAMDTNYYYGMDVWGQGTTVTVSS
VL: DIQMTQSPSSLSASVGDRVTITCQASEDIANNLNWYQQKPGKAPKLLIYAASSLQSGVPSRFSGSGSGTDFTLTISSLQPEDFATYYCQQGYNIPFTFGQGTKLEIKR
notes: IgG1; also called ST2 Antibody 11
B12: Human ST2 IgG1 Antibody 12 (antibody, V domains shown)
VH: QVQLVQSGAEVKKPGASVKVSCKASGYTFTGYYMHWVRQAPGQGLEWMGIIDPSGGGTSYAQKFQGRVTMTRDTSTSTVYMELSSLRSEDTAVYYCAKDIVVVPAAIANYYYGMDVWGQGTTVTVSS
VL: B5 VL with A25V, G30S, D32Y, A34N, A50G, S53T, Y96W, Q100P, E105D
notes: IgG1; also called ST2 Antibody 12
B13: Human ST2 IgG1 Antibody 13 (antibody, V domains shown)
VH: QVQLVQSGAEVKKPGSSVKVSCKASGYTFTDYYMHWVRQAPGQGLEWMGGIMPLFGTIKYAQELQGRVTITADESTSTAYMELSSLRSEDTAVYYCARGRVGATDYWGQGTLVTVSS
VL: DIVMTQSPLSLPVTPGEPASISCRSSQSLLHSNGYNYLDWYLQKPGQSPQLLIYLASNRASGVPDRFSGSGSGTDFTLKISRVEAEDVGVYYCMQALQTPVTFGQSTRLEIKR
notes: IgG1; also called ST2 Antibody 13
B14: Human ST2 IgG1 Antibody 14 (antibody, V domains shown)
VH: QVQLVQSGAEVKKPGSSVKVSCKASGYTFTSYGISWVRQAPGQGLEWMGGIIPIFGTANYAPRFQGRVTITADESTSTAYMELSSLRSEDTAVYYCARDTVSMDVWGQGTTVTVSS
VL: B1 VL with A55D, S58N, Q60E, S61T, A96G, L97A, Q98H, T99W, V109L
notes: IgG1; also called ST2 Antibody 14
B15: Human ST2 IgG1 Antibody 15 (antibody, V domains shown)
VH: B3 VH with F34I, I54M, P58T, R98T, R100A, K102A, R103G
VL: B5 VL with R24Q, G30S, D32Y, A34N, S53T, Y96P
notes: IgG1; also called ST2 Antibody 15
B16: Human ST2 IgG1 Antibody 16 (antibody, V domains shown)
VH: QVQLVQSGAEVKKPGASVKVSCKASGYTFTSHYMHWVRQAPGQGLEWMGIINPSGGSTSYAQKFQGRVTMTRDTSTSTVYMELSSLRSEDTAVYYCARAGIGYLAAHDLYYYYGMDVWGRGTLVTVSS
VL: EIVMTQSPATLSVSPGERATLSCRASQSVSSNFAWYQQKPGQAPRLLIYGASTRATGIPARFSGSGSGTEFTLTISSLQSEDFAVYYCQQYYSTPYTFGQGTKVEIKR
notes: IgG1; also called ST2 Antibody 16
B17: Human ST2 IgG1 Antibody 17 (antibody, V domains shown)
VH: QVQLVQSGAEVKKPGASVKVSCKASGYTFTDSFMFWVRQAPGQGLEWVGLINPGTGATIFAQKFQGRVTMTRDTSTSTVYMELSSLRSEDTAVYYCARSSDYDSSDYWGQGTLVTVSS
VL: B5 VL with G28S, G30S, N31T, D32W, A50G, S93N, T94S
notes: IgG1; also called ST2 Antibody 17
B18: Human ST2 IgG1 Antibody 18 (antibody, V domains shown)
VH: QVQLVQSGAEVKKPGSQVKVSCKASGYTFTSFGISWVRQAPGQGLEWLGGIIPTLGTANYAQKFQGRVTITADDSTSTAYMELSSLRSEDTAVYYCAGGAAAGPDKYYGMDVWGQGTTVTVSS
VL: not shown
notes: IgG1; also called ST2 Antibody 18
B19: Human ST2 IgG1 Antibody 19 (antibody, V domains shown)
VH: EVQLLESGGGLVQPGGSLRLSCAASGFSFSHAWMSWVRQAPGKGLEWVSVIHSGGSTFYADSVKGRFTISRDNSKNTLYLQMNSLRAEDTAVYYCARIGKGGGFDYWGQGTLVTVSS
VL: B5 VL with G28D, N31S, D32W, Y96P
notes: IgG1; also called ST2 Antibody 19
B20: Human ST2 IgG1 Antibody 20 (antibody, V domains shown)
VH: EVQLLESGAEVKKPGSSVKVSCKASGGTFSSYAISWVRQAPGQGLEWMGGIIPIFGTANYAQKFQGRVTITADESTSTAYMELSSLRSEDTAVYYCASGFYSNDLYYYYYMDVWGKGTTVTVSS
VL: DIQMTQSPSSLSASVGDRVTITCRASQSISSWLAWYQQKPGKAPKLLIYDASNLKTGVPSRFSGSGSGTDFTLTISSLQPEDFATYYCQQTYAIPLTFGGGTKVEIKR
notes: IgG1; also called ST2 Antibody 20

Molecular target: T1, Human ST2
Assay: SPR (Carterra), antibody immobilized, ST2 analyte
Experimental: Binding of the reformatted human ST2 antibodies to the human and mouse ST2 proteins was evaluated by surface plasmon resonance (SPR), using a high throughput antibody screening and characterization platform from Carterra (Salt Lake City, Utah).

Binder | Kd | koff | kon
B1 | 617 nM | 0.072 s⁻¹ | 120000 M⁻¹ s⁻¹
B2 | 229 nM | 0.11 s⁻¹ | 500000 M⁻¹ s⁻¹
B3 | 146 nM | 0.042 s⁻¹ | 290000 M⁻¹ s⁻¹
B4 | 12 nM | 0.0025 s⁻¹ | 210000 M⁻¹ s⁻¹
B5 | 190 nM | 0.048 s⁻¹ | 250000 M⁻¹ s⁻¹
B6 | 166 nM | 0.057 s⁻¹ | 340000 M⁻¹ s⁻¹
B7 | 15 nM | 0.0044 s⁻¹ | 290000 M⁻¹ s⁻¹
B8 | 153 nM | 0.017 s⁻¹ | 110000 M⁻¹ s⁻¹
B9 | 293 nM | 0.036 s⁻¹ | 120000 M⁻¹ s⁻¹
B10 | 131 nM | 0.079 s⁻¹ | 600000 M⁻¹ s⁻¹
B11 | 25 nM | 0.019 s⁻¹ | 780000 M⁻¹ s⁻¹
B12 | 217 nM | 0.024 s⁻¹ | 110000 M⁻¹ s⁻¹
B13 | 201 nM | 0.04 s⁻¹ | 200000 M⁻¹ s⁻¹
B14 | 42 nM | 0.017 s⁻¹ | 400000 M⁻¹ s⁻¹
B15 | 769 nM | 0.14 s⁻¹ | 190000 M⁻¹ s⁻¹
B16 | 96 nM | 0.056 s⁻¹ | 580000 M⁻¹ s⁻¹
B17 | 433 nM | 0.033 s⁻¹ | 76000 M⁻¹ s⁻¹
B18 | 1100 nM | 0.11 s⁻¹ | 95000 M⁻¹ s⁻¹
B19 | 113 nM | 0.062 s⁻¹ | 550000 M⁻¹ s⁻¹
B20 | 81 nM | 0.065 s⁻¹ | 810000 M⁻¹ s⁻¹
